Test results taken from the nanobody polyreactivity screen of Harvey et al. (2022).

assay: yeast display, Sf9 membrane polyspecificity reagent, FACS + sequencing; frameworks hold sequencing errors
Summary of the method: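 Synthetic nanobody libraries on Saccharomyces cerevisiae BJ5465 were galactose-induced for 36–48 hours, stained 1 hour at 4 °C with 10% biotinylated, detergent-solubilized Sf9 membrane reagent and enriched on streptavidin microbeads. FACS then separated cells into low and high (top ~1%) gates by anti-HA (expression) and streptavidin (reagent binding) fluorescence. Genes were colony-PCR amplified, MiSeq 2 × 250 sequenced and CDR-length filtered. A clone's polyreactivity label is that of its gate of origin.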

Row | Sequence | polyreactivity (PSR sort gate)
1 | QVQLVESGGGLVQAGGSLRLSCAASGLIFVRYAMGWYRQAPGKERELVAAISRGGTTYYADSVKGRFTISRDNAKNTVYLQMNSLKPEDTAVYYCAVGIRYSKDYYYWGQGTQVTVSS | high polyreactivity
2 | QVQLVESGGGLVQAGGSLRLSCAASGLIFVSNAMGWYRQAPGKERELVAAISWSGSRTYYADSVKGRFTISRDNAKNTVYLQMNSLKPEDTAVYYCNAVRRGLPVVGAYDYWGQGTQVTVSS | high polyreactivity
3 | QVQLVESGGGLVQAGGSLRLSCAASGLIFVSYAMGWYRQAPGKERELVAAISSGGSTYYADSVKGRFTISRDNAKNTVYLQMNSLKPEDTAVYYCAAEYVFRGYVGYDYWGQGTQVTVSS | low polyreactivity
4 | QVQLVESGGGLVQAGGSLRLSCAASGLIFWAYAMGWYRQAPGKERELVAAISWSGARTYYADSVKGRFTISRDNAKNTVYLQMNILKPEDTAVYYCAAGLSSSSSGYEGDYWGLGTQVTVSS | high polyreactivity
5 | QVQLVESGGGLVQAGGSLRLSCAASGLIFWKYAMGWYREAPGKERELVAAITSGGSTNYADSVKGRFTISRDNAKNPVYLQMNSLKPEDTAVYYCNARSWFEYYWGQGTQVTVSS | high polyreactivity
6 | QVQLVESGGGLVQAGGSLRLSCAASGLIFWKYARGWYRQAPGKERELVAAIRKSVGSTYYADSVKGRFTISRDNAKNTVYLQMNSLKPEDTAVYYCAAVNAGVGSPVKRDYWGQGTQVTVSS | high polyreactivity
7 | QVQLVESGGGLVQAGGSLRLSCAASGLIFWLNAMGWYRQAPGKERELVATITAGGDDTNYADSVKGRFTISRDNAKNTVYLQMNSLKPEDTAVYYCAKSRTRSGHYGYDYWGQGTQVTVSS | low polyreactivity
8 | QVQLVESGGGLVQAGGSLRLSCAASGLIFWYSAMGWYRQAPGKERELVAAISSGGSTNYADSVKGRFTISRDNAKNTVYLQMNSLKPEDTAVYYCNVYTYRFHTARQAVDYWGQGTQVTVSS | low polyreactivity
9 | QVQLVESGGGLVQAGGSLRLSCAASGLIFYDNMGWYRQAPGKERELVAAISSSGGSTSYADSVKGRFTISRDNAKNTVYLQMNSLKPEDTAVYDSAADSYPAYLGFVGFDYWGQGTQVTVSS | low polyreactivity
10 | QVQLVESGGGLVQAGGSLRLSCAASGLIFYDNVMGWYRQAPVKEREFVAAITSIGGSTYYADSVKGRFTISRDNAKNTVYLQMNSLKPEDTAVYYCNVKSKYYSPNYDYWGQGTQVTVSS | low polyreactivity
11 | QVQLVESGGGLVQAGGSLRLSCAASGLIFYFYAMGWYRQAPGKERELVAAISSRGGRTYYADSVKGRFTISRDNAKNTVYLQMNSLKPEDTAVYYCNVDQLLRRTSAQGDYWGQGTQVTVSS | high polyreactivity
12 | QVQLVESGGGLVQAGGSLRLSCAASGLIFYGNAMGWYRKAPGKERELVAAISWSGGNTSYADSVKGRFTISRDNAKNTVYVLMNSLKAEDTAVDYCNADSLPSLERYGYWGQGTQVTVSS | low polyreactivity
13 | QVQLVESGGGLVQAGGSLRLSCAASGLIFYIYAMGRYREAPGKERELVAAISSSGGSTFYADSVKGRFTISRDNAKNTVYLQMNSLKPEDTAVYYCAAYYGGGYGFHRDYWGQGTQVTVSS | high polyreactivity
14 | QVQLVESGGGLVQAGGSLRLSCAASGLIFYIYMGWYRQAPGKESELVAVISSSGNSTYYADSVKGRFTISRYNAKNTVYLQLNSLKPEDTAVYYCNASAYYPPSSSRYYYWGQGTQVTVSS | low polyreactivity
15 | QVQLVESGGGLVQAGGSLRLSCAASGLIFYKYAMGWYRPAPGKERELVAAISSSGGSTYYADSVKGRFTISRDNAKNTVYLQMNSLKPEDTAVYYCAARTNRRGYNYWGQGTQVTVSS | high polyreactivity
16 | QVQLVESGGGLVQAGGSLRLSCAASGLIFYKYAMGWYRQAPGKERELVAAITSGGSTNYADSVKGRFTISRDNAKNTVYLQMNSLKPEDTAVYYCNADYNLYLVVRWWYPPVDYWGQGTQVTVSS | low polyreactivity
17 | QVQLVESGGGLVQAGGSLRLSCAASGLIFYLYAMGWYRQAPGKERELVAAITSGGGSTYYADSVKGRFTHSRDHAKNTVYLQMNSLKPEDTGVYYCAARLVLYITVVYEDDYWGQGTQVTVSS | low polyreactivity
18 | QVQLVESGGGLVQAGGSLRLSCAASGLIFYPNGMGWYRQAPGKERELVAAITYSDGSTYYADSVKGRCTISRDNAKNTVYLQMNSLKPEDTAVYYCTARWGYRRGYWGQGTQVTVSS | high polyreactivity
19 | QVQLVESGGGLVQAGGSLRLSCAASGLIFYRNAMGWYRQAPGKERELVAAIRFSTGSTYYADSVKGRFTISRDNAKKTVYLQMNSLKPEDTAVYYCAADRRYYWYNYWGQGTQVTVSS | high polyreactivity
20 | QVQLVESGGGLVQAGGSLRLSCAASGLIFYTYAMGWYRQAPGKERELVAGISRSGTSTRYADSVKGRFTISRDNAKNTVYLQMNSLKPEDTAVYYCNAVGRSKHGYSRSYYWGQGTQVTVSS | high polyreactivity
21 | QVQLVESGGGLVQAGGSLRLSCAASGLIFYTYAMGWYRQAPGKERELVATISGRGGSTYYADSVKGRFTISRDNAKNTVYLQMNSLKPEDTAVYYCNVVPSTYYQYDYWGQGTQVTVSS | high polyreactivity
22 | QVQLVESGGGLVQAGGSLRLSCAASGLIFYYYALAWYRQAPGKERELVAAITWTAGSTSYADSVKGRFTISRDNAKNTVYLQMNRLKPEDTAVYYCAADYRHDTFSNEYDYWGQGTQVTVSS | low polyreactivity

Row | Sequence | polyreactivity (PSR sort gate)
23 | QVQLVESGGGLVQAGGSLRLSCAASGLIIPKYAMGWYRQAPGKEREFVAAISGRGGTTYYADSVKGRFTISRDNAKNTVYLQMYSLKPEDTAVYYCAAGGPWANIYGNGYWGQGTQVTVSS | high polyreactivity
24 | QVQLVESGGGLVQAGGSLRLSCAASGLILDGYAMGWYRQAPGKERELVAAITRSGGRTYYADSVKGRFTISRDNAKNTVYLQMNSLKPEDTAVYYCAALGWSGRYSYDYWGQGTQVTVSS | high polyreactivity
25 | QVQLVESGGGLVQAGGSLRLSCAASGLILKYYAMGWYRQAPGKEREFVAAISSSGTRTYADSVKGRFTISRDNAKNTVYLQMNSLKPEDTAVYYCAKDYRVWVAATIAHDYWGQGTQVTVSS | low polyreactivity
26 | QVQLVESGGGLVQAGGSLRLSCAASGLILNYYTMGWYRQAPGKERELVATISSSTGSTYYADSVKGRFTISRDNAKNTVYLQMNSLKPEDTAVYYCASDHWSYWQIYDYWGQGTQVTVSS | low polyreactivity
27 | QVQLVESGGGLVQAGGSLRLSCAASGLILQYYVMGWYIQAPGKERELVAAITRSGGGTYYADSVKGRFTISRDNAKNTVYLQMNSLKPEDSAVYYCAAQRQYGKFDYWGQGTQVTVSS | high polyreactivity
28 | QVQLVESGGGLVQAGGSLRLSCAASGLILYTYAMGWYRQAPGKERELVAAINSGGRTYYADSVKGRFTISRDNAKNTVYLQMNSLKPEDTAVYYCAADYGSRVRGFNYWGQGTQVTVSS | low polyreactivity
29 | QVQLVESGGGLVQAGGSLRLSCAASGLILYWYAMGWYRQAPGKERELVAVITRSGRTNYADSVKGRFTSSRDNAKNTVYLQMNSLKPEDTAVYYCAADYYTSFYSWPPYDYWGQGTQVTVSS | low polyreactivity
30 | QVQLVESGGGLVQAGGSLRLSCAASGLISTYYVMGWYRQAPGQERELVAAIRASDASTYYADSVKGRFTISRDNAKNPVYLQMHSLKPEDTAVYYCAAETGFYSRFAFHRYNYWGQGTQVTVSS | low polyreactivity
31 | QVQLVESGGGLVQAGGSLRLSCAASGLIYSAYAMGWYRQAPGKEREFVAAISRSGGITFYADSVKGRFTISRDNAKNTVYLQMNSLKPEDTAVYYCAARRSKYRRGGGYYWGQGTQVTVSS | high polyreactivity
32 | QVQLVESGGGLVQAGGSLRLSCAASGLKFAHYAMGWYRQAPGKERELVAAISRSGGRTRYADSVKGRFTISRDQAKNTVYLQMNSLKAEDTAVYYCAAVGSVNYDADFDYWGQGTQVTVSS | high polyreactivity
33 | QVQLVESGGGLVQAGGSLRLSCAASGLNFRQYAMGWYRKAPGKERELVAAITVTGGTTYYADSVKGRFTISRDNAKNTVYLQMNSLKPEDTAVYYCATRANYVGWTQFGHGYDYWGQGTQVTVSS | low polyreactivity
34 | QVQLVESGGGLVQAGGSLRLSCAASGLNFYYYAMGWYRQAPGKESELVAAISGGGSTYYADSVKGRFTISRDNAKNTVYLQMNSLKPEDTAVYYCAASYWYPSWLYDYWGQGTQVTVSS | low polyreactivity
35 | QVQLVESGGGLVQAGGSLRLSCAASGLNLKRYAMGCYTQAPGKERELVAAISKSGGSTYYADSVKGRFTISRDNAKNTVYLQMNSLKPEDTAVYYCAADSYNLWDDYWGQGTQVTVSS | low polyreactivity
36 | QVQLVESGGGLVQAGGSLRLSCAASGLPFQEYAMGWYRQAPGKEREFVAAISASGGSTYYADSVKGRFTISRDNAKNTVYLQMNSLKPEDTAVYYCNKYGTVGYGSYGYWGQGTQVTVSS | high polyreactivity
37 | QVQLVESGGGLVQAGGSLRLSCAASGLSFQSYAMGWYRQAPGKERELVAAISRRSGSTYYADSVKGRFTISRDNAKNTVYLQMNSLKPEDTAVYYCTTRRGERGYWGQGTQVTVSS | high polyreactivity
38 | QVQLVESGGGLVQAGGSLRLSCAASGLSFYPNGMGWYREAPGKERELVAAITYSDGSTYYADSVKGRFSISRDNAKNTVYLQMNSLKPEDTAVYYGNRVTRWTYNYWGQGTQVTVSS | high polyreactivity
39 | QVQLVESGGGLVQAGGSLRLSCAASGLTFADYAMGWYRQAPVKERELVAAISSSDTSTYYADSVKGRFTISRDNAKNTVYLQMNSLKPEDTAVYYCAADEGYVWPYYGWGFGKYDYWGQGTQVTVSS | low polyreactivity
40 | QVQLVESGGGLVQAGGSLRLSCAASGLTFAGYAMGWYRQAPGKERELVAAITSGGSTYYADSVKGRFTISRDNAKNTVYLQMNSLKPEDTAVYYCAARRVRKALVGYGYWGQGTQVTVSS | high polyreactivity
41 | QVQLVESGGGLVQAGGSLRLSCAASGLTFANYAIGWYRQAPGKERELVAAISTWSGGSTYYADSVKGRFTISRDNAKNTVYLQMNSLKPEDTAVYYCAARRYSRGRLPYDYWGQGTQVTVSS | high polyreactivity
42 | QVQLVESGGGLVQAGGSLRLSCAASGLTFANYAMGWYRQAPGKERELVAAISTWSGGSTYYADSVKGRFTISRDHAKNTVYLQMNSLKPEDTAVYYCNTDRYWGKGDYWGQGTQVTVSS | high polyreactivity
43 | QVQLVESGGGLVQAGGSLRLSCAASGLTFAPYVMGWYRQAPGKERELVPAISRSGGSTYYADSVKGRFTISRDNAKNTVYLQMNSLKPEDTAVYYCNRDVSLSAFDYWGQGTQVTVSS | high polyreactivity
